Test system: NCI-H292 cells
Assay: AB-PAS staining of mucus glycoprotein in NCI-H292 cells
Assay type: cell-based, human
Conditions: FIG. 1 and 2
Protocol: NCI-H292 cells (human pulmonary mucoepidermoid tumor cell strain, purchased from ATCC) were suspended in 10% FCS (Fetal Calf Serum)-containing RPMI-1640 (produced by Gibco Corp.), sowed on a Lab-Tek 8 well chamber slide (produced by Nunc Corp.) in a density of 6.0×10^4 cells/cm^2, cultured for 72 hours, subjected to the replacement of the culture solution by RPMI-1640 containing 0.1% of BSA, and further cultured for 24 hours.
On the day of the treatment, the culture solution of each well was replaced by RPMI-1640 (containing 0.1% BSA) containing EGF (5 ng/mL, produced by Becton Dickinson Corp.), HB-EGF (5 ng/mL, produced by R & D Corp.), TGF-α (5 ng/mL, produced by Peprotech Corp.), or PBS to start the treatment. Then, the cells were incubated at 37° C. for 24 hours.
After the prescribed 24 hours treatment, the culture supernatant was removed. The residue was once washed with PBS, mixed with 4% paraformaldehyde/PBS, and then allowed to stand at room temperature for one hour to immobilize the cells. The immobilized cells were twice washed with Milli Q water and then stained with AB-PAS. The staining was carried out according to a book (“All of new dyeing methods” p136-150 (Iyaku Shuppansha)). […]

B1: EGF: Epidermal Growth Factor, EGFR ligand, produced by Becton Dickinson Corp. (protein)
chain: PQHWSCPEGTLAGNGNSTCVGPAPFLIFSHGNSIFRIDTEGTNYEQLVVDAGVSVIMDFHYNEKRIYWVDLERQLLQRVFLNGSRQERVCNIEKNVSGMAINWINEEVIWSNQQEGIITVTDMKGNNSHILLSALKYPANVAVDPVERFIFWSSEVAGSLYRADLDGVGVKALLETSEKITAVSLDVLDKRLFWIQYNREGSNSLICSCDYDGGSVHISKHPTQHNLFAMSLFGDRIFYSTWKMKTIWIANKHTGKDMVRINLHSSFVPLGELKVVHPLAQPKAEDDTWEPEQKLCKLRKGNCSSTVCGQDLQSHLCMCAEGYALSRDRKYCEDVNECAFWNHGCTLGCKNTPGSYYCTCPVGFVLLPDGKRCHQLVSCPRNVSECSHDCVLTSEGPLCFCPEGSVLERDGKTCSGCSSPDNGGCSQLCVPLSPVSWECDCFPGYDLQLDEKSCAASGPQPFLLFANSQDIRHMHFDGTDYGTLLSQQMGMVYALDHDPVENKIYFAHTALKWIERANMDGSQRERLIEEGVDVPEGLAVDWIGRRFYWTDRGKSLIGRSDLNGKRSKIITKENISQPRGIAVHPMAKRLFWTDTGINPRIESSSLQGLGRLVIASSDLIWPSGITIDFLTDKLYWCDAKQSVIEMANLDGSKRRRLTQNDVGHPFAVAVFEDYVWFSDWAMPSVMRVNKRTGKDRVRLQGSMLKPSSLVVVHPLAKPGADPCLYQNGGCEHICKKRLGTAWCSCREGFMKASDGKTCLALDGHQLLAGGEVDLKNQVTPLDILSKTRVSEDNITESQHMLVAEIMVSDQDDCAPVGCSMYARCISEGEDATCQCLKGFAGDGKLCSDIDECEMGVPVCPPASSKCINTEGGYVCRCSEGYQGDGIHCLDIDECQLGEHSCGENASCTNTEGGYTCMCAGRLSEPGLICPDSTPPPHLREDDHHYSVRNSDSECPLSHDGYCLHDGVCMYIEALDKYACNCVVGYIGERCQYRDLKWWELRHAGHGQQQKVIVVAVCVVVLVMLLLLSLWGAHYYRTQKLLSKNPKNPYEESSRDVRSRRPADTEDGMSSCPQPWFVVIKEHQDLKNGGQPVAGEDGQAADGSMQPTSWRQEPQLCGMGTEQGCWIPVSSDKGSCPQVMERSFHMPSYGTQTLEGGVEKPHSLLSANPLWQQRALDPPHQMELTQ
production of the mucus glycoprotein: promoted

Reference: patent US20040038369A1, “Airway-specific trypsin-like enzymes and method of using the same” (priority 2000, published 2004)
